Data from article PMC5770421 (2018).

Tests used:
Assay in all cases: BLI
H4K8ac [1] = molecular target: T1, H4K8ac (Saccharomyces cerevisiae, acetyl-Lys8 (mature numbering; K9 in UniProt); biotinylated. Limits 1-21 from the pull-down methods; the BLItz peptide is 1-20. Peptide species not given; a commercial vertebrate peptide would have …)
H4K5ac [2] = molecular target: T2, H4K5ac (Saccharomyces cerevisiae, acetyl-Lys5 (mature numbering; K6 in UniProt); biotinylated. Limits 1-21 from the pull-down methods; the BLItz peptide is 1-20. Peptide species not given; a commercial vertebrate peptide would have …)
H4K12ac [3] = molecular target: T3, H4K12ac (Saccharomyces cerevisiae, acetyl-Lys12 (mature numbering; K13 in UniProt); biotinylated. Limits 1-21 from the pull-down methods; the BLItz peptide is 1-20. Peptide species not given; a commercial vertebrate peptide would …)
H4K8ac [4] = molecular target: T1, H4K8ac; remark: listed apart in the source
H4K5ac [5] = molecular target: T2, H4K5ac; remark: listed apart in the source
H4K12ac [6] = molecular target: T3, H4K12ac; remark: listed apart in the source

T1 sequence (main, as listed by the source): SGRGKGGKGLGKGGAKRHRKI

- koff (H4K8ac [1]): 0.00237 s⁻¹
- koff (H4K5ac [2]): 0.00317 s⁻¹
- koff (H4K12ac [3]): 0.00302 s⁻¹
- Kd (H4K8ac [4]): 19.6 nM
- Kd (H4K5ac [5]): 20.1 nM
- Kd (H4K12ac [6]): 23.3 nM
B1: Dot1p (disruptor of telomeric silencing-1), MBP tag removed (enzyme)
chain: MGGQESISNNNSDSFIMSSPNLDSQESSISPIDEKKGTDMQTKSLSSYSKGTLLSKQVQNLLEEANKYDPIYGSSLPRGFLRDRNTKGKDNGLVPLVEKVIPPIHKKTNNRNTRKKSSTTTKKDVKKPKAAKVKGKNGRTNHKHTPISKQEIDTAREKKPLKKGRANKKNDRDSPSSTFVDWNGPCLRLQYPLFDIEYLRSHEIYSGTPIQSISLRTNSPQPTSLTSDNDTSSVTTAKLQSILFSNYMEEYKVDFKRSTAIYNPMSEIGKLIEYSCLVFLPSPYAEQLKETILPDLNASFDNSDTKGFVNAINLYNKMIREIPRQRIIDHLETIDKIPRSFIHDFLHIVYTRSIHPQANKLKHYKAFSNYVYGELLPNFLSDVYQQCQLKKGDTFMDLGSGVGNCVVQAALECGCALSFGCEIMDDASDLTILQYEELKKRCKLYGMRLNNVEFSLKKSFVDNNRVAELIPQCDVILVNNFLFDEDLNKKVEKILQTAKVGCKIISLKSLRSLTYQINFYNVENIFNRLKVQRYDLKEDSVSWTHSGGEYYISTVMEDVDESLFSPAARGRRNRGTPVKYTR
